Laboratory results from paper PMC9736777, “Expression and Characterization of Monomeric Recombinant Isocitrate Dehydrogenases from Corynebacterium glutamicum and Azotobacter vinelandii for NADPH Regeneration” (International Journal of Molecular Sciences, 2022).

B1: AvIDH (Azotobacter vinelandii) (protein)
chain: STPKIIYTLTDEAPALATYSLLPIIKAFTGSSGIAVETRDISLAGRLIATFPEYLTDTQKISDDLAELGKLATTPDANIIKLPNISASVPQLKAAIKELQQQGYKLPDYPEEPKTDTEKDVKARYDKIKGSAVNPVLREGNSDRRAPLSVKNYARKHPHKMGAWSADSKSHVAHMDNGDFYGSEKAALIGAPGSVKIELIAKDGSSTVLKAKTSVQAGEIIDSSVMSKNALRNFIAAEIEDAKKQGVLLSVHLKATMMKVSDPIMFGQIVSEFYKDALTKHAEVLKQIGFDVNNGIGDLYARIKTLPEAKQKEIEADIQAVYAQRPQLAMVNSDKGITNLHVPSDVIVDASMPAMIRDSGKMWGPDGKLHDTKAVIPDRCYAGVYQVVIEDCKQHGAFDPTTMGSVPNVGLMAQKAEEYGSHDKTFQIPADGVVRVTDESGKLLLEQSVEAGDIWRMCQAKDAPIQDWVKLAVNRARATNTPAVFWLDPARAHDAQVIAKVERYLKDYDTSGLDIRILSPVEATRFSLARIREGKDTISVTGNVLRDYLTDLFPIMELGTSAKMLSIVPLMSGGGLFETGAGGSAPKHVQQFLEEGYLRWDSLGEFLALAASLEHLGNAYKNPKALVLASTLDQATGKILDNNKSPARKVGEIDNRGSHFYLALYWAQALAAQTEDKELQAQFTGIAKALTDNETKIVGELAAAQGKPVDIAGYYHPNTDLTSKAIRPSATFNAALAPLA
notes: full-length gene, C-terminal 6xHis (kept), pET24a, E. coli BL21(DE3), Ni-NTA
B2: CgIDH (Corynebacterium glutamicum ATCC 13032) (protein)
chain: MAKIIWTRTDEAPLLATYSLKPVVEAFAATAGIEVETRDISLAGRILAQFPERLTEDQKVGNALAELGELAKTPEANIIKLPNISASVPQLKAAIKELQDQGYDIPELPDNATTDEEKDILARYNAVKGSAVNPVLREGNSDRRAPIAVKNFVKKFPHRMGEWSADSKTNVATMDANDFRHNEKSIILDAADEVQIKHIAADGTETILKDSLKLLEGEVLDGTVLSAKALDAFLLEQVARAKAEGILFSAHLKATMMKVSDPIIFGHVVRAYFADVFAQYGEQLLAAGLNGENGLAAILSGLESLDNGEEIKAAFEKGLEDGPDLAMVNSARGITNLHVPSDVIVDASMPAMIRTSGHMWNKDDQEQDTLAIIPDSSYAGVYQTVIEDCRKNGAFDPTTMGTVPNVGLMAQKAEEYGSHDKTFRIEADGVVQVVSSNGDVLIEHDVEANDIWRACQVKDAPIQDWVKLAVTRSRLSGMPAVFWLDPERAHDRNLASLVEKYLADHDTEGLDIQILSPVEATQLSIDRIRRGEDTISVTGNVLRDYNTDLFPILELGTSAKMLSVVPLMAGGGLFETGAGGSAPKHVQQVQEENHLRWDSLGEFLALAESFRHELNNNGNTKAGVLADALDKATEKLLNEEKSPSRKVGEIDNRGSHFWLTKFWADELAAQTEDADLAATFAPVAEALNTGAADIDAALLAVQGGATDLGGYYSPNEEKLTNIMRPVAQFNEIVDALKK
notes: full-length gene, C-terminal 6xHis (kept), pET24a, E. coli BL21(DE3), Ni-NTA; about 80 kDa by SEC, monomer

Key:
Assay in all cases: NADPH fluorescence, initial rates, Michaelis-Menten fit
[1] = substrate: NC(=O)c1ccc[n+]([C@@H]2O[C@H](COP(=O)(O)OP(=O)(O)OC[C@H]3O[C@@H](n4cnc5c(N)ncnc54)[C@H](OP(=O)(O)O)[C@@H]3O)[C@@H](O)[C@H]2O)c1; format: biochemical, Azotobacter vinelandii; conditions: 1 mM isocitrate, 1 mM MnCl2, 20 mM MOPS pH 7.4, 100 mM NaCl, 30 °C, varied: cofactor
Text: (§1) NADPH fluorescence, initial rates, Michaelis-Menten fit on AvIDH

[2] = substrate: O=C(O)CC(C(=O)O)C(O)C(=O)O; format: biochemical, Azotobacter vinelandii; conditions: 1 mM NADP+, 1 mM MnCl2, 20 mM MOPS pH 7.4, 100 mM NaCl, 30 °C, DL-isocitrate 0-100 μM
Text: as §1

[3] = substrate: NC(=O)c1ccc[n+]([C@@H]2O[C@H](COP(=O)(O)OP(=O)(O)OC[C@H]3O[C@@H](n4cnc5c(N)ncnc54)[C@H](OP(=O)(O)O)[C@@H]3O)[C@@H](O)[C@H]2O)c1; format: biochemical, Corynebacterium glutamicum; conditions: 1 mM isocitrate, 1 mM MnCl2, 20 mM MOPS pH 7.4, 100 mM NaCl, 30 °C, varied: cofactor
Text: (§2) NADPH fluorescence, initial rates, Michaelis-Menten fit on CgIDH

[4] = substrate: O=C(O)CC(C(=O)O)C(O)C(=O)O; format: biochemical, Corynebacterium glutamicum; conditions: 1 mM NADP+, 1 mM MnCl2, 20 mM MOPS pH 7.4, 100 mM NaCl, 30 °C, DL-isocitrate 0-100 μM
Text: as §2

Protein | Km [1] [µM] | kcat [1] [s⁻¹] | kcat/Km [1] [M⁻¹ s⁻¹] | Km [2] [µM] | kcat [2] [s⁻¹] | kcat/Km [2] [M⁻¹ s⁻¹] | Km [3] [µM] | kcat [3] [s⁻¹] | kcat/Km [3] [M⁻¹ s⁻¹] | Km [4] [µM] | kcat [4] [s⁻¹] | kcat/Km [4] [M⁻¹ s⁻¹]
B1 | 5.9 | 38.7 | 6.6e+06 | 13.9 | 44 | 3.2e+06 |  |  |  |  |  | 
B2 |  |  |  |  |  |  | 10.3 | 43.7 | 4.3e+06 | 15.0 | 49.4 | 3.3e+06
